The values below come from US20120208237A1 (Novo Nordisk, published 2012).

This test deals with T1, KIR2DS3 expressed on transfected cells (human, UniProt Q14952 22-304).
T1 construct: whole, on cells
In words: flow cytometry on cells transfected with KIR2DS3 (fifth column; its head is printed KIRDLS1 a second time, the legend's order gives KIR2DS3). Here is the method:
The KIR2DL cross-reactive mAbs were then tested for their ability to react with KIR at the surface of cells by flow cytometry. Briefly, the binding of the human anti-KIR mAbs was tested by incubating them with various cell lines stably over-expressing KIRs (e.g., YTS-2DL1, BWZ-KIR2DL2 and BWZ-KIR2DS4) or not expressing KIRs (e.g., YTS and BWZ). Briefly, cells were incubated with various concentrations (typically 0-50 μg/ml) of human anti-KIR mAb1-7F9 in DMEM-medium containing 2% FCS. After incubation, cells were washed and incubated with APC-conjugated secondary antibodies specific for human IgG. All incubations and washing steps were performed at 0-4° C. Subsequently, cells were washed, resuspended in PBS, and analyzed by flow cytometry on a FACScalibur or a FACScanto (both from Beckton Dickinson).

T1 sequence (Q14952 22-304): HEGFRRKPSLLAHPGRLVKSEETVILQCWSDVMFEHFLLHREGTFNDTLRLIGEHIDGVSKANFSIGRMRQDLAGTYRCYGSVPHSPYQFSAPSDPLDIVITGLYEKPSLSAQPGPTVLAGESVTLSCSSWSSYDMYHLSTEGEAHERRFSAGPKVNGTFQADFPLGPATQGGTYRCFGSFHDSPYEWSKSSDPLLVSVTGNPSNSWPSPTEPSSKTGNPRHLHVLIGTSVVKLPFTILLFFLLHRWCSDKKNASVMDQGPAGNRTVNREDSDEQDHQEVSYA

B1: human monoclonal antibody 1-7F9 (antibody, human IgG4, kappa, V domains shown)
VH: QVQLVQSGAEVKKPGSSVKVSCKASGGTFSFYAISWVRQAPGQGLEWMGGFIPIFGAANYAQKFQGRVTITADESTSTAYMELSSLRSDDTAVYYCARIPSGSYYYDYDMDVWGQGTTVTVSS
VL: EIVLTQSPVTLSLSPGERATLSCRASQSVSSYLAWYQQKPGQAPRLLIYDASNRATGIPARFSGSGSGTDFTLTISSLEPEDFAVYYCQQRSNWMYTFGQGTKLEIKR
notes: also called HuKIR 1-7F9; HuKIR1-7F9
For the molecule B1, the binding result is reported as “no binding (tested: 1 µg/ml)”.
